In patent publication US11814435B2, “Therapeutic antibodies and their uses” (PFIZER INC., priority 2015, dated 2023):
Positions count from the first letter of the chain named. Values belong to the molecule of their own block, whether it stands above or below them.

Experiments:
[1] = molecular target: T1, hBCMA (human BCMA) (Homo sapiens, UniProt Q02223); assay: Kinetics and affinity of hBCMA/human IgG interactions by SPR (Bio-Rad Proteon XPR36); assay type: binding; conditions: huBCMA, 37° C.
T1 sequence (Q02223 1-184): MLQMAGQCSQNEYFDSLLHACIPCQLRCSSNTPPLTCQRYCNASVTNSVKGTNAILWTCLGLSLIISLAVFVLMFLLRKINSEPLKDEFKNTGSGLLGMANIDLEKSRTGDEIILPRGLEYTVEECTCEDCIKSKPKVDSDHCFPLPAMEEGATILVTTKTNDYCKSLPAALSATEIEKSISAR
Method: All experiments were performed on a Bio-Rad Proteon XPR36 surface Plasmon resonance biosensor (Bio-Rad, Hercules, Calif.). An array of anti-BCMA antibodies was prepared using an amine-coupling method on a Bio-Rad GLC Sensor Chip similar to that described in Abdiche, et al., Anal. Biochem. 411, 139-151 (2011). The analysis temperature for the immobilization was 25° C. and the running buffer was HBS-T+(10 mM HEPES, 150 mM NaCl, 0.05% Tween-20, pH 7.4). Channels were activated in the analyte (horizontal) direction by injecting a mixture of 1 mM ECD and 0.25 mM NHS for 3 minutes at a flow rate of 30 μL/min. IgGs were immobilized on the activated spots by injecting them in the ligand (vertical) direction at 20 μg/mL in 10 mM Acetate pH 4.5 buffer for 1.5 minutes at […]. The activated surfaces were blocked by injecting 1M ethanolamine, pH 8.5 in the analyte direction for 3 minutes at 30 μL/min.
The analysis temperature for the hBCMA binding analysis was 37° C. or 25° C. in a running buffer of HBS-T+, supplemented with 1 mg/mL BSA. A kinetic titration method was employed for the interaction analysis as described in Abdiche, et al. The hBCMA (human BCMA) analyte was injected in the analyte direction using a series of injections from low to high concentration. The concentrations used were 0.08 nM, 0.4 nM, 2 nM, 10 nM and 50 nM (a 5-membered series, with a 5-fold dilution factor and top concentration of 50 nM). The association time for a given analyte dilution was two minutes. Immediately after the 50 nM hBCMA injection, dissociation was monitored for 2 hours. Prior to the hBCMA analyte injections, buffer was injected 5 times using the same association and dissociation times at the hBCMA analyte cycles to prepare a buffer blank sensorgram for double-referencing purposes (double referencing as described in Myszka, J. Mol. Recognit. 12, 279-284 (1999).
The sensorgrams were double-referenced and fit to a 1:1 Langmuir with mass transport kinetic titration model in BIAevaluation Software version 4.1.1 (GE Lifesciences, Piscataway, N.J.). The sensorgrams and fits are shown in FIG. 1, and the kinetics and affinity parameters for various anti-BCMA antibodies of the present invention are shown in Tables 6A-6C.

[2] = system: cyBCMA; assay: Kinetics and affinity of cyBCMA/human IgG interactions by SPR (Bio-Rad Proteon XPR36); assay type: binding, cynomolgus; conditions: 37° C.

B1: L3.PY/L1.AH/H2.DY: anti-BCMA antibody (antibody, V domains shown)
VH: EVQLLESGGGLVQPGGSLRLSCAASGFTFGSYAMTWVRQAPGKGLEWVSAIDYSGGNTFYADSVKGRFTISRDNSKNTLYLQMNSLRAEDTAVYYCARVSPIASGMDYWGQGTLVTVSS
VL: EIVLTQSPGTLSLSPGERATLSCRASQSVSAHYLAWYQQKPGQAPRLLIYGASSRATGIPDRFSGSGSGTDFTLTISRLEPEDFAVYYCQHYPYPPSFTFGQGTKVEIK
ka (1/Ms) huBCMA @ 37° C. [1]: 3.05e+06 M⁻¹ s⁻¹ | kd (1/s) huBCMA @37° C. [1]: 0.00152 s⁻¹ | ka (1/Ms) cyBCMA @ 37° C. [2]: 2.32e+06 M⁻¹ s⁻¹ | kd (1/s) cyBCMA @37° C. [2]: 0.00451 s⁻¹

B3: L3.PY/L1.FF/H2.LT: anti-BCMA antibody (antibody, V domains shown)
VH: B1 VH with D52S, Y53L, S54T
VL: B1 VL with A31S, H32F, Y33F
ka (1/Ms) huBCMA @ 37° C. [1]: 3.3e+06 M⁻¹ s⁻¹ | kd (1/s) huBCMA @37° C. [1]: 0.00167 s⁻¹ | ka (1/Ms) cyBCMA @ 37° C. [2]: 2.19e+06 M⁻¹ s⁻¹ | kd (1/s) cyBCMA @37° C. [2]: 0.00341 s⁻¹

B4: L3.PY/L1.FF/H2.YQ: anti-BCMA antibody (antibody, V domains shown)
VH: B1 VH with D52S, S54Q
VL: B1 VL with A31S, H32F, Y33F
ka (1/Ms) huBCMA @ 37° C. [1]: 3.32e+06 M⁻¹ s⁻¹ | kd (1/s) huBCMA @37° C. [1]: 0.00152 s⁻¹ | ka (1/Ms) cyBCMA @ 37° C. [2]: 2.19e+06 M⁻¹ s⁻¹ | kd (1/s) cyBCMA @37° C. [2]: 0.00326 s⁻¹

B5: L3.PY/L1.FF/H2.DY: anti-BCMA antibody (antibody, V domains shown)
VH: B1 VH
VL: B1 VL with A31S, H32F, Y33F
ka (1/Ms) huBCMA @ 37° C. [1]: 4.14e+06 M⁻¹ s⁻¹ | kd (1/s) huBCMA @37° C. [1]: 0.00271 s⁻¹ | ka (1/Ms) cyBCMA @ 37° C. [2]: 2.66e+06 M⁻¹ s⁻¹ | kd (1/s) cyBCMA @37° C. [2]: 0.005 s⁻¹

B6: L3.PY/L1.FF/H3.AE: anti-BCMA antibody (antibody, V domains shown)
VH: B1 VH with D52S, Y53G, S104A, G105E
VL: B1 VL with A31S, H32F, Y33F
ka (1/Ms) huBCMA @ 37° C. [1]: 3.82e+06 M⁻¹ s⁻¹ | kd (1/s) huBCMA @37° C. [1]: 0.00263 s⁻¹ | ka (1/Ms) cyBCMA @ 37° C. [2]: 2.85e+06 M⁻¹ s⁻¹ | kd (1/s) cyBCMA @37° C. [2]: 0.00501 s⁻¹

B9: L3.PY/L1.AH/H3.YA: anti-BCMA antibody (antibody, V domains shown)
VH: B1 VH with D52S, Y53G, A103Y, S104A
VL: B1 VL
ka (1/Ms) huBCMA @ 37° C. [1]: 3e+06 M⁻¹ s⁻¹ | kd (1/s) huBCMA @37° C. [1]: 0.0015 s⁻¹ | ka (1/Ms) cyBCMA @ 37° C. [2]: 2.37e+06 M⁻¹ s⁻¹ | kd (1/s) cyBCMA @37° C. [2]: 0.00526 s⁻¹

Continued, in another order:

ka (1/Ms) huBCMA @ 37° C. [1]: 3.5e+06 M⁻¹ s⁻¹ | kd (1/s) huBCMA @37° C. [1]: 0.0018 s⁻¹ | kd (1/s) cyBCMA @37° C. [2]: 0.00416 s⁻¹
B2: L3.PY/L1.FF/H3.YA: anti-BCMA antibody (antibody, V domains shown)
VH: B1 VH with D52S, Y53G, A103Y, S104A
VL: B1 VL with A31S, H32F, Y33F
ka (1/Ms) cyBCMA @ 37° C. [2]: 2.46e+06 M⁻¹ s⁻¹

ka (1/Ms) huBCMA @ 37° C. [1]: 3.69e+06 M⁻¹ s⁻¹ | kd (1/s) huBCMA @37° C. [1]: 0.00236 s⁻¹ | kd (1/s) cyBCMA @37° C. [2]: 0.00436 s⁻¹
B7: L3.PY/L1.PH/H2.QR: anti-BCMA antibody (antibody, V domains shown)
VH: B1 VH with D52S, Y53G, S63Q, V64R
VL: B1 VL with A31P
ka (1/Ms) cyBCMA @ 37° C. [2]: 2.42e+06 M⁻¹ s⁻¹

ka (1/Ms) huBCMA @ 37° C. [1]: 2.37e+06 M⁻¹ s⁻¹ | kd (1/s) huBCMA @37° C. [1]: 0.00116 s⁻¹ | kd (1/s) cyBCMA @37° C. [2]: 0.00553 s⁻¹
B8: L3.PY/L1.PH/H2.HA: anti-BCMA antibody (antibody, V domains shown)
VH: B1 VH with D52S, Y53H, S54A
VL: B1 VL with A31P
ka (1/Ms) cyBCMA @ 37° C. [2]: 1.61e+06 M⁻¹ s⁻¹
